Reference: paper PMC11116813

How the values were obtained:
[1] = molecular target: full-length human HP1α WT (hHP1α), recombinant (human) (UniProt P45973); test: ITC; iTC200, full-length HP1α dimer in the cell (60 μM for hINCENP, 80 μM for hSgo1), 600 μM hINCENP or 800 μM hSgo1 fragment in the syringe, 25°C, 20 mM NaPO4 pH 7.0, 150 mM NaCl, 1 mM DTT (Fig. 6A, Fig. S5A); one-site model
[2] = molecular target: Chp2 (Schizosaccharomyces pombe) (UniProt O42934); conditions: cited from earlier work
Sequence of Chp2 (Schizosaccharomyces pombe) (O42934 whole entry): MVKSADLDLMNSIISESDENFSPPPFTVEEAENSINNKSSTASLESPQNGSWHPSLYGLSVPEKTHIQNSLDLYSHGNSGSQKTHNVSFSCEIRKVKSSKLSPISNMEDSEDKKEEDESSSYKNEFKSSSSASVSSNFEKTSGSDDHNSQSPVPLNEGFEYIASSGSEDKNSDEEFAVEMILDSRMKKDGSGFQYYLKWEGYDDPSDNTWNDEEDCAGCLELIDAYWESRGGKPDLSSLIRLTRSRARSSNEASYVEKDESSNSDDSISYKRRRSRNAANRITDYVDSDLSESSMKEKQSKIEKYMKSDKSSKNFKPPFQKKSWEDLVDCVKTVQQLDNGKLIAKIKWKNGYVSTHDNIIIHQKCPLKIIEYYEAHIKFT

Sequence of full-length human HP1α WT (hHP1α), recombinant (human) (P45973 whole entry, the tested form may be a part): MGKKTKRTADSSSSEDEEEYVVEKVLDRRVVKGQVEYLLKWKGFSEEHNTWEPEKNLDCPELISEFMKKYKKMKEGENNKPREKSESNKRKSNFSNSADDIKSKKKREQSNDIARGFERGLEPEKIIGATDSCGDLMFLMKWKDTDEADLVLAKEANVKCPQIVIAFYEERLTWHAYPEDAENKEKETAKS
Sequence of Mit1 (Q9P793 whole entry): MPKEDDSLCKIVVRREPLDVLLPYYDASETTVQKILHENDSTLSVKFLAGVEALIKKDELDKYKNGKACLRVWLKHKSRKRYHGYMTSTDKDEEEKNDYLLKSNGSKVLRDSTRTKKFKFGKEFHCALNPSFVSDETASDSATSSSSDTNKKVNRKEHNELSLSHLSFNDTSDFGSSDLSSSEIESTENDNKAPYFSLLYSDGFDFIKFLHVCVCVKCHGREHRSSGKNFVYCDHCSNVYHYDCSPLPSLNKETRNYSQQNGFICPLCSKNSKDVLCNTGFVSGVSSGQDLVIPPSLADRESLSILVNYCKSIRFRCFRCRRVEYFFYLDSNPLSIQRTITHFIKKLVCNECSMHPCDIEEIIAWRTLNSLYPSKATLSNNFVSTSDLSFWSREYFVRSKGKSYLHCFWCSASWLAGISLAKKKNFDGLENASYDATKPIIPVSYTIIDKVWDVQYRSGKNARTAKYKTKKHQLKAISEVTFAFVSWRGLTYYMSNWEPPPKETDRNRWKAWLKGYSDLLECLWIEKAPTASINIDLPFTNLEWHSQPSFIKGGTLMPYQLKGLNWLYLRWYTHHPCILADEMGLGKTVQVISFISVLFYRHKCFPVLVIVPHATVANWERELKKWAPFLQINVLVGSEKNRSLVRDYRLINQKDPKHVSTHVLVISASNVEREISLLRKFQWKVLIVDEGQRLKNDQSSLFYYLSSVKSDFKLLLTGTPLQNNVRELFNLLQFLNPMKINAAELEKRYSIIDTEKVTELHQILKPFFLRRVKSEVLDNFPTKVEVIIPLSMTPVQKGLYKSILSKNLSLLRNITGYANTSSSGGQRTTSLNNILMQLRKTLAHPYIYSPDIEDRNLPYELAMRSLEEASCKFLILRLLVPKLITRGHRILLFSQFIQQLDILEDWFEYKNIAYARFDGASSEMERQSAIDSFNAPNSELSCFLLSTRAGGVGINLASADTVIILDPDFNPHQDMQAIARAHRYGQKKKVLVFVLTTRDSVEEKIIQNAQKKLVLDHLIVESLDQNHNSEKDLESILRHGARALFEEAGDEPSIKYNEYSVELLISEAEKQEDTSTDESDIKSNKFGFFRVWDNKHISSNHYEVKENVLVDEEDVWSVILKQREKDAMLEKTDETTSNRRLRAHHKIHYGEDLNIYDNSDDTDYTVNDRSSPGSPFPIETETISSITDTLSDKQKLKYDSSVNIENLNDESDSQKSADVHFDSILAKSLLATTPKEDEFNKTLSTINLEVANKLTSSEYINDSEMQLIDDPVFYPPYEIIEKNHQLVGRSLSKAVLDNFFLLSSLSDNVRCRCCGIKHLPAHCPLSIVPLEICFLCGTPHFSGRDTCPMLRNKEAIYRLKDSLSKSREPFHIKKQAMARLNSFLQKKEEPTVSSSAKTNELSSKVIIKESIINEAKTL

Substance | Kd [1] [µM] | Kd [2] [µM]
human INCENP fragment (121-210) E180A (from UniProt Q9NQS7 121-210) (domain or fragment) | 0.81 | 
Mit1 (from UniProt Q9P793) |  | 0.0026
human INCENP fragment (121-210) WT used in Fig. 6A (from UniProt Q9NQS7 121-210) (domain or fragment) | 0.06 | 
